Patent US20150125491A1 (AURIGENE DISCOVERY TECHNOLOGIES, published 2015)
Bridges are numbered along the chain shown (N, C = ends). Where no end group is shown, it is not given here. [ ]: non-standard residue; d: D form. Ahx = NCCCCCC(=O)O

B1: Compound 14 (peptide)
peptide: SNTSESFQ
modifications: cyclised between the N-terminal amino group of Ser and the alpha-carboxyl of the C-terminal Glu, which was attached to Rink amide resin through its gamma-carboxyl (gives Gln)
B2: Compound 2 (peptide)
peptide: SETSKSF-NH2
modifications: lactam 2-5; N-terminus assumed
SMILES: C[C@@H](O)[C@@H]1NC(=O)[C@@H](NC(=O)[C@@H](N)CO)CCC(=O)NCCCC[C@@H](C(=O)N[C@@H](CO)C(=O)N[C@@H](Cc2ccccc2)C(N)=O)NC(=O)[C@H](CO)NC1=O
B3: Compound 15 (peptide)
peptide: cyclo(SNTSESF[Ahx]Q)
SMILES: C[C@@H](O)[C@@H]1NC(=O)[C@H](CC(N)=O)NC(=O)[C@H](CO)NC(=O)[C@H](CCC(N)=O)NC(=O)CCCCCNC(=O)[C@H](Cc2ccccc2)NC(=O)[C@H](CO)NC(=O)[C@H](CCC(=O)O)NC(=O)[C@H](CO)NC1=O

What follows are molecules tested against PD-L1 expressed on MDA-MB-231 cells (UniProt Q9NZQ7 19-290, limits assumed) (assay: cell-based or functional assay).
PD-L1 expressed on MDA-MB-231 cells, sequence (Q9NZQ7 19-290 limits assumed): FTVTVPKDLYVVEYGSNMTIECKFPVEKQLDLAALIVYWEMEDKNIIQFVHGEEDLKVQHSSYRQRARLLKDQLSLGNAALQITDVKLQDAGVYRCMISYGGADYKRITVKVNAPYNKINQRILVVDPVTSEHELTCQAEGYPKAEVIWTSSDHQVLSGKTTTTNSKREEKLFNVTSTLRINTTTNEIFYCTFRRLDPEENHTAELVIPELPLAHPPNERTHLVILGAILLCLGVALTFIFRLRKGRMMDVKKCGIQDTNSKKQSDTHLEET
For SETSKSFQ (not fully specified; also: cyclic, bridge and C-terminus not given here) [Compound 16], the “% Splenocyte proliferation” value was 36% and the Fold induction was 2.8 fold.
EETSKSF (not fully specified; also: cyclic, bridge and C-terminus not given here) [Compound 4] was tested, and the “% Splenocyte proliferation” value was 36% and the Fold induction was 2.8 fold.
SETSKSFE (not fully specified; also: cyclic, bridge and C-terminus not given here) [Compound 20] was tested, and the “% Splenocyte proliferation” value was 36% and the Fold induction was 2.8 fold.
With SETSKSI (not fully specified; also: cyclic, bridge and C-terminus not given here) [Compound 5] the “% Splenocyte proliferation” value was 42% and the Fold induction was 3.2 fold.
With SETSKVF (not fully specified; also: cyclic, bridge and C-terminus not given here) [Compound 7] the “% Splenocyte proliferation” value was 52% and the Fold induction was 4 fold.
With cyclo([Ahx]SETSKSFQ) [Compound 17] the “% Splenocyte proliferation” value was 42% and the Fold induction was 3.2 fold.
For B1, the “% Splenocyte proliferation” value was 55% and the Fold induction was 4.2 fold.
B2 was tested, and the “% Splenocyte proliferation” value was 57% and the Fold induction was 4.3 fold.
For IETSKSF (not fully specified; also: cyclic, bridge and C-terminus not given here) [Compound 6], the “% Splenocyte proliferation” value was 55% and the Fold induction was 4.2 fold.
With B3 the “% Splenocyte proliferation” value was 53% and the Fold induction was 4 fold.
With SKTSESF-NH2 (lactam 2-5) [Compound 1] the “% Splenocyte proliferation” value was 60% and the Fold induction was 4.6 fold.
In the case of IEMSKVQ-OH (lactam 2-5) [Compound 12], the “% Splenocyte proliferation” value is reported as 39% and the Fold induction is reported as 3 fold.
In the case of IEMSKSQ (not fully specified; also: cyclic, bridge and C-terminus not given here) [Compound 11], the “% Splenocyte proliferation” value is reported as 54% and the Fold induction is reported as 4.2 fold.

The molecules below were run against PD-1 on mouse splenocytes (mouse) (UniProt Q02242) (assay: cell-based or functional assay).
PD-1 on mouse splenocytes (mouse), sequence (Q02242 25-288): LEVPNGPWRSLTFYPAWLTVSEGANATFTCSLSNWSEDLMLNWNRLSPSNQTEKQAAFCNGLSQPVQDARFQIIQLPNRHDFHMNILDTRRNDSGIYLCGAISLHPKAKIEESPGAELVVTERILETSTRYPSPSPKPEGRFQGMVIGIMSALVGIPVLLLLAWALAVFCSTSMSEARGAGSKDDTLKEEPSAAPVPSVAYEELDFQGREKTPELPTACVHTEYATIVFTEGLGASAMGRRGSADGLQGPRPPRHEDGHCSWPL
Work on “PD-L1 expressed on MDA-MB-231 cells (from UniProt Q9NZQ7 19-290) (ligand)” yielded a % Splenocyte proliferation (Background proliferation: Splenocytes+anti-CD3/CD28+PDL or Tumor) of 13%.
